One may read the Kd as the concentration at which binding is half-saturated.

Results on ten molecules are retold here after patent US20190218277A1 (Chugai, published 2019).

One assay deals with human C1q (Calbiochem) (human, UniProt P02745 23-245; P02746 28-253; P02747 29-245). Briefly: ELISA: antibody coated on the plate at the concentration shown, human C1q added, detected with HRP anti-human C1q, OD 450 nm. In general terms: An ELISA detects its analyte on a solid surface through an enzyme-linked reagent.
Chain of human C1q (Calbiochem) (P02745 23-245 limits assumed, chain 1 of 3): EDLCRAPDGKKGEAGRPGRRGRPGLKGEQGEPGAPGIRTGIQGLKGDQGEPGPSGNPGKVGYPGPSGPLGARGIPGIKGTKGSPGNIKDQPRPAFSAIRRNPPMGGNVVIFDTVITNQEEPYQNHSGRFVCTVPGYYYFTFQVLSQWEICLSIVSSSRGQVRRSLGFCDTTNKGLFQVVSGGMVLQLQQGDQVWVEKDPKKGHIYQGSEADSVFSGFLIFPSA
Chain of human C1q (Calbiochem) (P02746 28-253 limits assumed, chain 2 of 3): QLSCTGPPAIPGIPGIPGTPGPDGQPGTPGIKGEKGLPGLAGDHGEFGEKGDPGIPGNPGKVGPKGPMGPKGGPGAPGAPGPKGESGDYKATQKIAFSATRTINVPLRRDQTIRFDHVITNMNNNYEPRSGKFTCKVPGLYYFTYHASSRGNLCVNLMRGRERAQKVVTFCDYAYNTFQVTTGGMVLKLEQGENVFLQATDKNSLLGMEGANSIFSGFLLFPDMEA
Chain of human C1q (Calbiochem) (P02747 29-245 limits assumed, chain 3 of 3): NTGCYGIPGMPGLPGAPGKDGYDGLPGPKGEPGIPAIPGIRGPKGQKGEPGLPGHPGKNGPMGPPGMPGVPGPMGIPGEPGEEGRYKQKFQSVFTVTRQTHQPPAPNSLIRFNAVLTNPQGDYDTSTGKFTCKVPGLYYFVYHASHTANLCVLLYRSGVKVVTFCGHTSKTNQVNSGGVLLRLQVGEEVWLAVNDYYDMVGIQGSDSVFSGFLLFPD
A further assay concerns the target T1, human FcγRIIIa (158V) (human, UniProt P08637 17-208).
T1 construct: also called human FcγR3a allelic variant 158V
Briefly: SPR (Biacore T200, pH 7.4, 25 °C): His-tagged FcγR captured by anti-His antibody; antibody injected at 100 nM alone (Ab alone) or as 1:1 complex with trimeric CD154 (CD154 IC); binding level / capture level [F].

The target of assay [1] is mouse C1q (from 10% mouse plasma) (mouse, UniProt P98086 23-245; P14106 26-253; Q02105 30-246). Briefly: ELISA: antibody coated on the plate at the concentration shown, 10% mouse plasma added, detected with biotinylated anti-mouse C1q and streptavidin-HRP, OD 405 nm.
Chain of mouse C1q (from 10% mouse plasma) (P98086 23-245 limits assumed, chain 1 of 3): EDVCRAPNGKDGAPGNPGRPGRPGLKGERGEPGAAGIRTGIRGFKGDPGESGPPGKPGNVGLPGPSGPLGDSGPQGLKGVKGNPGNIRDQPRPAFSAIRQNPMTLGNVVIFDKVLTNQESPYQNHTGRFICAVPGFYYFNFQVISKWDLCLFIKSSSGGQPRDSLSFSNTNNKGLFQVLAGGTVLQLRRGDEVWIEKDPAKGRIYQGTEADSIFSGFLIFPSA
Chain of mouse C1q (from 10% mouse plasma) (P14106 26-253 limits assumed, chain 2 of 3): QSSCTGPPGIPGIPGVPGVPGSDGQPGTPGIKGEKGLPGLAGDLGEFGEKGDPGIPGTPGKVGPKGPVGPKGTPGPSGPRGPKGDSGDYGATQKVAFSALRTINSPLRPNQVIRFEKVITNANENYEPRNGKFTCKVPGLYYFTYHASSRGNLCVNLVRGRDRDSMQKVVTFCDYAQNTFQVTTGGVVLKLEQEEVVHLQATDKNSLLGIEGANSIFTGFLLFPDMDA
Chain of mouse C1q (from 10% mouse plasma) (Q02105 30-246 limits assumed, chain 3 of 3): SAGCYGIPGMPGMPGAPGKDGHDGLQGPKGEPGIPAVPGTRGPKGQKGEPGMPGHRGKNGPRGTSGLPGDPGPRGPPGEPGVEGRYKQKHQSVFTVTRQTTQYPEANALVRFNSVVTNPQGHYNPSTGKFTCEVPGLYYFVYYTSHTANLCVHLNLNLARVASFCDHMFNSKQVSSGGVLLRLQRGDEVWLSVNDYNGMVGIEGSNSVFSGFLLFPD
The target in another assay is T2, human FcγRIa (human, UniProt P12314 16-292).
T2 construct: also called human FcγR1a
T2 sequence (P12314 16-292 limits assumed): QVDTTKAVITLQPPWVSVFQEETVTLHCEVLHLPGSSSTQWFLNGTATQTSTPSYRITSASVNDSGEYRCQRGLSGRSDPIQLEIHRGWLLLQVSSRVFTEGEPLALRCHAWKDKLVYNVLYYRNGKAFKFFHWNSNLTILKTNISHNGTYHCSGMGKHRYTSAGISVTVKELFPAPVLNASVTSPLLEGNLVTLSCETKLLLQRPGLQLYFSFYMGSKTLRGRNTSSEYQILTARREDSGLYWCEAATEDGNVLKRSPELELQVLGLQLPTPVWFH
Briefly: SPR (Biacore T200, pH 7.4, 25 °C): His-tagged FcγR captured by anti-His antibody; antibody injected at 100 nM alone (Ab alone) or as 1:1 complex with trimeric CD154 (CD154 IC); binding level / capture level [A].

Assay [2] deals with T3, Recombinant soluble E protein (0.8E-His) from DENV-4 (DENV-4, UniProt P09866 280-674).
T3 construct: also called DENV-4 E protein; DV4

The target in assay [3] is T4, Recombinant soluble E protein (0.8E-His) from DENV-1 (DENV-1, UniProt P27909 281-675).
T4 construct: also called DENV-1 E protein; DV1

Assay [4] concerns the target T5, Recombinant soluble E protein (0.8E-His) from DENV-2 (DENV-2, UniProt P14340 281-675).
T5 construct: also called DENV-2 E protein; DV2

Assay [5] deals with T6, Recombinant soluble E protein (0.8E-His) from DENV-3 (DENV-3, UniProt P27915 281-673).
T6 construct: also called DENV-3 E protein; DV3
Briefly: SPR, Biacore T200. (In general: SPR reads the build-up and loss of mass on a sensor chip optically.)

In assay [6] the target is T6, Recombinant soluble E protein ….

T1 sequence (P08637 other isoform, or with tags, fused parts or gaps limits assumed): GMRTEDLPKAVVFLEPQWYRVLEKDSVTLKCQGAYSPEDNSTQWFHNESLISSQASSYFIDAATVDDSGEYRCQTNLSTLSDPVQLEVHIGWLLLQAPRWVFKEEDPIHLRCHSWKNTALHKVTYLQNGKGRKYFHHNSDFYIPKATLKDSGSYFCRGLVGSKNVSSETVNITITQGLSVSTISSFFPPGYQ

B1: Anti-CD154 antibody (SLAPH0336a/SLAPL0336a) with Fc variant LALA+KAES (SG1095) (antibody, human IgG1, kappa, L234A L235A)
heavy: EVQLVESGGGSVKPGGSLKLSCAASGFTFSDHYMYWVRQTPEKRLEWVAIISGGGSYTSYPDSMKGRFTISRDNAKNILHLQMSSLKSEDTAMYYCTRESNGKPGFAYWGQGTLVTVSAASTKGPSVFPLAPSSKSTSGGTAALGCLVKDYFPEPVTVSWNSGALTSGVHTFPAVLQSSGLYSLSSVVTVPSSSLGTQTYICNVNHKPSNTKVDKRVEPKSCDKTHTCPPCPAPEAAGGPSVFLFPPKPKDTLMISRTPEVTCVVVDVSHEDPEVKFNWYVDGVEVHNAKTKPREEQYNSTYRVVSVLTVLHQDWLNGKEYKCKVSNAALPAPISKTISKAKGQPREPQVYTLPPSREEMTKNQVSLTCLVKGFYPSDIAVEWESNGQPENNYKTTPPVLDSDGSFFLYSKLTVDKSRWQQGNVFSCSVMHEALHNHYTQKSLSLSP
light: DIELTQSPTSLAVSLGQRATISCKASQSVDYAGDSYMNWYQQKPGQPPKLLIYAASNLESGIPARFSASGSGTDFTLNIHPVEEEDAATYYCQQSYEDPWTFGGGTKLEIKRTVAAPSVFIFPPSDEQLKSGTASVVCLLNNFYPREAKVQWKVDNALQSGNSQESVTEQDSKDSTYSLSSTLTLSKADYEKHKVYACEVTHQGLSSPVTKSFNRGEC
As to B1, the binding result (with human C1q (Calbiochem); with human FcγRIIIa (158V); in [1]; with human FcγRIa) was “binds” each time.

B2: Anti-CD154 antibody (SLAPH0336a/SLAPL0336a) with Fc variant LALA+KMES (SG1098) (antibody, human IgG1, kappa, L234A L235A)
heavy: EVQLVESGGGSVKPGGSLKLSCAASGFTFSDHYMYWVRQTPEKRLEWVAIISGGGSYTSYPDSMKGRFTISRDNAKNILHLQMSSLKSEDTAMYYCTRESNGKPGFAYWGQGTLVTVSAASTKGPSVFPLAPSSKSTSGGTAALGCLVKDYFPEPVTVSWNSGALTSGVHTFPAVLQSSGLYSLSSVVTVPSSSLGTQTYICNVNHKPSNTKVDKRVEPKSCDKTHTCPPCPAPEAAGGPSVFLFPPKPKDTLMISRTPEVTCVVVDVSHEDPEVKFNWYVDGVEVHNAKTKPREEQYNSTYRVVSVLTVLHQDWLNGKEYKCKVSNMALPAPISKTISKAKGQPREPQVYTLPPSREEMTKNQVSLTCLVKGFYPSDIAVEWESNGQPENNYKTTPPVLDSDGSFFLYSKLTVDKSRWQQGNVFSCSVMHEALHNHYTQKSLSLSP
light: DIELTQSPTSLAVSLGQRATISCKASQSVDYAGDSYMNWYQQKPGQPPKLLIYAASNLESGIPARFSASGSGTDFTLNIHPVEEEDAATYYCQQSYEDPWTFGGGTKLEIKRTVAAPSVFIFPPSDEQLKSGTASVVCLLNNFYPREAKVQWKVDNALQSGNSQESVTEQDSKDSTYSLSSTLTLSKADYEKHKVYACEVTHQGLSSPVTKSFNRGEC
Consider B2, for which the binding result with human C1q (Calbiochem) is given as “binds”.

B3: Anti-CD154 antibody (SLAPH0336a/SLAPL0336a) with Fc variant LALA+KEES (SG1097) (antibody, human IgG1, kappa, L234A L235A)
heavy: EVQLVESGGGSVKPGGSLKLSCAASGFTFSDHYMYWVRQTPEKRLEWVAIISGGGSYTSYPDSMKGRFTISRDNAKNILHLQMSSLKSEDTAMYYCTRESNGKPGFAYWGQGTLVTVSAASTKGPSVFPLAPSSKSTSGGTAALGCLVKDYFPEPVTVSWNSGALTSGVHTFPAVLQSSGLYSLSSVVTVPSSSLGTQTYICNVNHKPSNTKVDKRVEPKSCDKTHTCPPCPAPEAAGGPSVFLFPPKPKDTLMISRTPEVTCVVVDVSHEDPEVKFNWYVDGVEVHNAKTKPREEQYNSTYRVVSVLTVLHQDWLNGKEYKCKVSNEALPAPISKTISKAKGQPREPQVYTLPPSREEMTKNQVSLTCLVKGFYPSDIAVEWESNGQPENNYKTTPPVLDSDGSFFLYSKLTVDKSRWQQGNVFSCSVMHEALHNHYTQKSLSLSP
light: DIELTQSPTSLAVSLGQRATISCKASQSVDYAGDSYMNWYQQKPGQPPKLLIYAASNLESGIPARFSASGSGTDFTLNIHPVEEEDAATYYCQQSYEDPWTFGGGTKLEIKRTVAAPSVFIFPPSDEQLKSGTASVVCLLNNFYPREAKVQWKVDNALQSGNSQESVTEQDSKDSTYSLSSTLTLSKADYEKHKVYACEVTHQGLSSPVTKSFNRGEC
Regarding B3, the binding result with human C1q (Calbiochem) is listed as “binds”.

B4: LALA + KDES (antibody, human IgG1, kappa, L234A L235A)
heavy chain: EVQLVESGGGSVKPGGSLKLSCAASGFTFSDHYMYWVRQTPEKRLEWVAIISGGGSYTSYPDSMKGRFTISRDNAKNILHLQMSSLKSEDTAMYYCTRESNGKPGFAYWGQGTLVTVSAASTKGPSVFPLAPSSKSTSGGTAALGCLVKDYFPEPVTVSWNSGALTSGVHTFPAVLQSSGLYSLSSVVTVPSSSLGTQTYICNVNHKPSNTKVDKRVEPKSCDKTHTCPPCPAPEAAGGPSVFLFPPKPKDTLMISRTPEVTCVVVDVSHEDPEVKFNWYVDGVEVHNAKTKPREEQYNSTYRVVSVLTVLHQDWLNGKEYKCKVSNDALPAPISKTISKAKGQPREPQVYTLPPSREEMTKNQVSLTCLVKGFYPSDIAVEWESNGQPENNYKTTPPVLDSDGSFFLYSKLTVDKSRWQQGNVFSCSVMHEALHNHYTQKSLSLSP
light chain: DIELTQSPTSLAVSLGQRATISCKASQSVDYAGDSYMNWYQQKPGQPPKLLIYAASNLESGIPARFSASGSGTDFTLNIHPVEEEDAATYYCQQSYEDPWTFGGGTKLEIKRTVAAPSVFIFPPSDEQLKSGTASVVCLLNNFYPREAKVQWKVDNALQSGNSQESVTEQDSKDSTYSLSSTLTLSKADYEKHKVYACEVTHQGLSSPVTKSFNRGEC
notes: also called Anti-CD154 antibody (SLAPH0336a/SLAPL0336a) with Fc variant LALA+KDES (SG1096); SG1096
Consider B4, for which the binding result with human C1q (Calbiochem) is “binds”.

B5: DG_3CH912-SG182/3CL-SK1 (antibody, human IgG1, kappa, V domains shown)
VH: QVQLVQSGPDVEKPGASVKVSCKASGYTFTSNYIHWVRQAPGQGLEWMGVINPRGGSRASAQKFQGRITMTRDTSTSTVYMELSSLRSEDTAVYYCARGGRALFYDSYTTPFDGGSWWFDPWGQGSLVTVSS
VL: DIQLTQSPSSLSASVGDRVTFTCQASQDIRKYLNWYQQKPGKAPKLLIYDASNLKTGVPSRFSGSGSGTDFTFTISSLQPEDVATYYCQQFDDLPITFGQGTRLQIKR
For B5, the dissociation constant Kd in [2] was determined as 8.78 nM; in [3], 1.85 nM; in assay [4], 0.811 nM. Moreover, the binding result in assay [5] is “binds”.

B6: DG_3CH955-SG182/3CL563-SK1 (antibody, human IgG1, kappa, V domains shown)
VH: QVQLVQSGPDVEKPGASVKVSCKASGYTFTSNYIHWVRQAPGQGLEWMGVINPRGGSRRSAQKFQGRITMTRDTSTSTVYMELSSLRSEDTAVYYCARGGRALFYDSYTTPRDLGSWWFDPWGQGSLVTVSS
VL: DIQLTQSPSSLSASVGDRVTFTCQASQDIRQYLNWYQQKPGKAPKLLIYDASNLKFGVPSRFSGSGSGTDFTFTISSLQPEDVATYYCQQFSALPITFGQGTRLQIKR
B6: the Kd worked out at 12.2 nM in [2], 1.91 nM in assay [3] and 1.04 nM in assay [4]. Moreover, the binding result in [5] is “binds”.

B7: DG_3CH953-SG182/3CL563-SK1 (antibody, human IgG1, kappa, V domains shown)
VH: QVQLVQSGPDVEKPGASVKVSCKASGYTFTSNYIHWVRQAPGQGLEWMGVINPRGGSRRSAQKFQGRITMTRDTSTSTVYMELSSLRSEDTAVYYCARGGRALFYDSYTTPFDGGSWWFDPWGQGSLVTVSS
VL: DIQLTQSPSSLSASVGDRVTFTCQASQDIRQYLNWYQQKPGKAPKLLIYDASNLKFGVPSRFSGSGSGTDFTFTISSLQPEDVATYYCQQFSALPITFGQGTRLQIKR
On to B7, for which the dissociation constant (Kd) in assay [2] stood at 8.21 nM; in assay [3], 1.88 nM; in assay [4], 0.922 nM. Moreover, the binding result in assay [5] is “binds”.

B8: DG_3CH-SG182/3CL499-SK1 (antibody, V domains shown)
VH: QVQLVQSGPDVEKPGASVKVSCKASGYTFTSNYIHWVRQAPGQGLEWMGVINPRGGSTASAQKFQGRITMTRDTSTSTVYMELSSLRSDDTAVYYCARGGRALFYDSYTTPRDGGSWWFDPWGQGSLVTVSS
VL: DIQLTQSPSSLSASVGDRVTFTCQASQDIRKYLNWYQQKPGKAPKLLIYDASNLKFGVPSRFSGSGSGTDFTFTISSLQPEDVATYYCQQFDALPITFGQGTRLQIKR
Take B8: the Kd came out at 8.35 nM in assay [2], 11.1 nM in assay [3], 4.03 nM in assay [6] and 4.73 nM in assay [4].

B9: DG_3CH-SG182/3CL563-SK1 (antibody, V domains shown)
VH: QVQLVQSGPDVEKPGASVKVSCKASGYTFTSNYIHWVRQAPGQGLEWMGVINPRGGSTASAQKFQGRITMTRDTSTSTVYMELSSLRSDDTAVYYCARGGRALFYDSYTTPRDGGSWWFDPWGQGSLVTVSS
VL: DIQLTQSPSSLSASVGDRVTFTCQASQDIRQYLNWYQQKPGKAPKLLIYDASNLKFGVPSRFSGSGSGTDFTFTISSLQPEDVATYYCQQFSALPITFGQGTRLQIKR
B9: the equilibrium dissociation constant (Kd) in assay [2] was determined as 11.8 nM; in assay [3], 13.4 nM; in assay [6], 3.52 nM; in assay [4], 4.43 nM.

B10: DG_3CH955-SG182/3CL499-SK1 (antibody, human IgG1, kappa, V domains shown)
VH: QVQLVQSGPDVEKPGASVKVSCKASGYTFTSNYIHWVRQAPGQGLEWMGVINPRGGSRRSAQKFQGRITMTRDTSTSTVYMELSSLRSEDTAVYYCARGGRALFYDSYTTPRDLGSWWFDPWGQGSLVTVSS
VL: DIQLTQSPSSLSASVGDRVTFTCQASQDIRKYLNWYQQKPGKAPKLLIYDASNLKFGVPSRFSGSGSGTDFTFTISSLQPEDVATYYCQQFDALPITFGQGTRLQIKR
As to B10, the Kd in assay [2] is 8.26 nM; in assay [3], 1.26 nM; in assay [4], 1.03 nM. In [5], the binding result is “binds”.
